Test results: patent US20160168210A1, “DERIVATIVES OF COLLAGEN-BINDING HAIRPIN PEPTIDES” (NATIONAL RESEARCH COUNCIL OF CANADA, priority 2012, published 2016)
Entries after “also recorded” stand apart in the source; their conditions may differ. Where no end group is shown, it is not given here.

How the values were obtained:
[1] = target: rat-tail collagen type I (Rattus norvegicus, UniProt P02454+P02466); test: Collagen binding/responsiveness of peptides by proton NMR and H-15N HSQC spectroscopy; set-up: rat-tail collagen type I (at 4 mg/ml in 0.02 N acetic acid); purchased BD Bioscience; host or cells: rat tail (tissue-derived); details: for response to / binding of collagen (NMR spectral perturbations): peptide free in solution vs in the presence of collagen; for NMR perturbations after collagen gelation (polymerization); reversibility of collagen binding: before vs after collagen gelation
rat-tail collagen type I (Rattus norvegicus, UniProt P02454+P02466), sequence (P02454 152-1207 limits assumed): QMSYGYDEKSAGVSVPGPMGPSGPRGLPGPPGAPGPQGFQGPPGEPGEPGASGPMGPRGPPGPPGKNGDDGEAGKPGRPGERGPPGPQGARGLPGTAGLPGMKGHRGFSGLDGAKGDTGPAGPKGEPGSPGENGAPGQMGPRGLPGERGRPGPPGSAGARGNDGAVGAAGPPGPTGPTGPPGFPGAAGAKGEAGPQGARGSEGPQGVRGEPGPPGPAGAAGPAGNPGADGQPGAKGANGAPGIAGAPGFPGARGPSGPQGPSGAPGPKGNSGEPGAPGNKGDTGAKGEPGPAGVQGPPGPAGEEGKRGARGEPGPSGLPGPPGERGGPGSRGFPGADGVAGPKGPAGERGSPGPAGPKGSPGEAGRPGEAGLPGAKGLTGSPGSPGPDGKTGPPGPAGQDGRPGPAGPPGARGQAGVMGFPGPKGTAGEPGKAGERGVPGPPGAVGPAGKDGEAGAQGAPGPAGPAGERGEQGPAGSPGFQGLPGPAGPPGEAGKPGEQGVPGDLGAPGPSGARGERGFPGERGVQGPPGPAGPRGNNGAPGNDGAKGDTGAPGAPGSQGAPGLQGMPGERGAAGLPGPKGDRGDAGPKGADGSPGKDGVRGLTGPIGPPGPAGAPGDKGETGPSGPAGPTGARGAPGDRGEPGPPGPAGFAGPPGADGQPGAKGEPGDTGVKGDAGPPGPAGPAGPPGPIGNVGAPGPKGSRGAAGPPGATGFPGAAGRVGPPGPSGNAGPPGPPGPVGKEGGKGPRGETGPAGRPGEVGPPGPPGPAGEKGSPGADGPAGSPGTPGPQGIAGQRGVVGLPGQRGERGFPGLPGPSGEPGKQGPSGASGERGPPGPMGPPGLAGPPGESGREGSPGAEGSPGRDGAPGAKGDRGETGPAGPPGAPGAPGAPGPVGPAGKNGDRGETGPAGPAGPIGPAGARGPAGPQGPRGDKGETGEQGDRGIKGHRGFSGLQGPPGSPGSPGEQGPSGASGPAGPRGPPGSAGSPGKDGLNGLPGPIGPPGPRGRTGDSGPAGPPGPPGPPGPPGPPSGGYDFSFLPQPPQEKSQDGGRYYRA
rat-tail collagen type I (Rattus norvegicus, UniProt P02454+P02466), sequence (P02466 86-1125 limits assumed): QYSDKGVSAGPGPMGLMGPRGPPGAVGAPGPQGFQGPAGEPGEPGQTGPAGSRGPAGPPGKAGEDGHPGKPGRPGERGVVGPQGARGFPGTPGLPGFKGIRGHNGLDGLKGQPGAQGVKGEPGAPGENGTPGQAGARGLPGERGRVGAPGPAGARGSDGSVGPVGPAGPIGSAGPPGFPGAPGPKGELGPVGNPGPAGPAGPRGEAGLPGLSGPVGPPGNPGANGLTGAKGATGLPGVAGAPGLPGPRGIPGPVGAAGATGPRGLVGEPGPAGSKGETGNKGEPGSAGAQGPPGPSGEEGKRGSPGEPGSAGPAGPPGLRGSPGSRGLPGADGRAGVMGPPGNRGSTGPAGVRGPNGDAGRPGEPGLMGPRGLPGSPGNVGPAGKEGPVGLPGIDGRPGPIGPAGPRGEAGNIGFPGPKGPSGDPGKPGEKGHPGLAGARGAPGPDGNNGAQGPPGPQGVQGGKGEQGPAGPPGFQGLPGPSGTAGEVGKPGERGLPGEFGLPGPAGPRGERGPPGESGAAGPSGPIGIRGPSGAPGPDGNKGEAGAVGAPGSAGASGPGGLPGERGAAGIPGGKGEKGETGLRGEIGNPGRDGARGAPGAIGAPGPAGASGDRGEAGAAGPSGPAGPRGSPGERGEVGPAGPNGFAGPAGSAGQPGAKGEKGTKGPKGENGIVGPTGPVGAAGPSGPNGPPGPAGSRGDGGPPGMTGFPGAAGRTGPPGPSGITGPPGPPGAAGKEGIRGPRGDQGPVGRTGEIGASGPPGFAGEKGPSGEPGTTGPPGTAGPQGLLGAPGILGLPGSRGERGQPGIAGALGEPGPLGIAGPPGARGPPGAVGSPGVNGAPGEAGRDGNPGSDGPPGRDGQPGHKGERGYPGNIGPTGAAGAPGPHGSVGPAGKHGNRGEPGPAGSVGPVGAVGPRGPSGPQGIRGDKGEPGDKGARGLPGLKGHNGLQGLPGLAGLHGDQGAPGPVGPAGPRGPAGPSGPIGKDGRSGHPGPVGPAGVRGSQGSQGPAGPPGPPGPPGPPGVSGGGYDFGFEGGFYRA
Experimental: Rat collagen hydrogels were prepared using rat-tail collagen type I (at 4 mg/ml in 0.02 N acetic acid) from BD Bioscience. A volume of 200 μL of the concentrated collagen solution was mixed with an equal volume of a buffer solution that was 400 mM in Tris-HCl and 400 mM in NaCl with a pH of 7.6 and with 50 μL of deuterated water (D2O). The sample mixture was transferred to an NMR tube followed by gentle mixing under agitation using a Thermolyne™ Max Mix-II apparatus. The NMR tube containing the collagen solution was placed within the RF probe housed in a 500 MHz super-conducting magnet (Bruker Avance-500 NMR spectrometer). The probe and sample bulk temperature was kept at 277 K for 3 hours and then elevated to 310 K at a rate of 1 degree/10 min to enable fibril alignment during a slow process of collagen gelation under the influence of the magnetic field (Ma 2008). The degree of fibril alignment of the collagen hydrogels was determined by use of deuterium NMR spectroscopy of the added D2O as described (Ma 2008). […]
Randomly-deposited collagen (hydrogel) matrix was prepared following the same procedure as above for partially aligned hydrogels, except that the RF probe and the NMR tube (or test tubes) containing the collagen solution were placed outside the magnetic field. Peptides containing collagen-binding hairpins were introduced into the hydrogels in two ways, the first with the collagen stock solution diluted (50:50 in volume ratio) by the buffer of 400 mM in Tris-HCl and 400 mM in NaCl at pH 7.6 containing the peptides of interest (i.e. for FIGS. 1A & 1D), which gelates in the presence of the added peptide. Alternatively, peptides in an appropriate buffer were introduced to the top of the hydrogel matrix (i.e. for FIGS. 1B & 1C) preformed in the NMR tube (or test tube) following the procedures described above. The behavior of the peptides in the hydrogels was followed by use of NMR H-^15N HSQC spectra for ^15N-labelled peptides (FIG. 1) and/or by use of one-dimensional proton NMR spectroscopy (FIG. 2).
Deuterium NMR spectroscopy studies of collagen responsiveness (and/or binding) for each peptide were carried out using a volume of (400-X) μL of a peptide dissolved in pure water mixed with 50 μL of a 10×PBS (phosphate-buffered saline) supplemented by sodium phosphate to a final concentration of 50 mM, with 50 μL of deuterated water (D2O) to form the reference sample (where X=0), or the peptide-collagen complex with X μL of rat-tail collagen type I (at 3.6 to 4 mg/ml in 0.02 N acetic acid from BD Bioscience) adjusted to achieve the desired final concentration of collagen. The pH value of the reference peptide samples was adjusted to match the pH of the final peptide-collagen complex in order to facilitate NMR spectral comparison. The peptide-collagen solutions were also subjected to gelation under magnetic field guidance followed by the measurement of fibril alignment (Ma 2008) as a semi-quantitative indication of peptide-collagen binding. Deuterium coupling constants measuring the degree of collagen fibril alignment were reduced by more than 1.0 Hz for MH2-wZIP4, by less than 0.5 Hz for MH2-wZIP6 and MH2-wZIP5, which parallel those observed for trpzip4, trpzip6, trpzip5 and the gb1 peptide (see Example 4). As a comparison, a solution of rat collagen at a concentration of 1.8 mg/ml in 200 mM Tris-Cl/200 mM NaCl at pH 7.6 formed a partially-aligned hydrogel with a deuterium coupling constant (Ma, 2008) of 2.5 Hz, while a solution of rat collagen at a concentration of 3 mg/ml in PBS (137 mM NaCl/2.68 mM KCl/10.1 mM Na2HPO4/1.76 mM KH2PO4) supplemented with Na2HPO4 to achieve a final concentration of 50 mM at pH 7.4 formed a partially-aligned hydrogel with a deuterium coupling constant of 4.8 Hz. A solution of human collagen at a concentration of 2.23 mg/ml in PBS supplemented with Na2HPO4 with a final concentration of 50 mM at pH 7.4 formed a partially-aligned hydrogel with a deuterium coupling constant of 1.3 Hz.

[2] = system: abdominal vena cava injured by FeCl3; details: I.V. 30 minutes after FeCl3; about 1/4 of the highest FL4247 dose
Text: The application of ferric chloride on venous and arterial vessels was therefore the method used to produce the inflamed vasculature in the animal model. The carotid artery (arterial model) and the abdominal vena cava (venous model) were the chosen vessels for the imaging experiments with injured blood vessels undergong thrombosis.
The FeCl3 rat venous model of thrombosis was generated as described (Wang 2005) with some modifications. Briefly, rats were anesthetized with a 2.5% isoflurane/oxygen mixture and placed on a heat source (35-37° C.). The vena cava was then exposed via a midline incision and the region between the renal and iliolumbar veins was isolated. One minute after drug administration, a piece of filter paper (Gel Blot Paper, GB003, Whatman, Piscataway, N.J., USA; 7 mm diameter) saturated with 10% FeCl3 (EMD Chemicals Inc., Gibbstown, N.J., USA) was placed on the exposed surface of the vena cava and incubated for 3.5 minutes. During the application of FeCl3, the abdominal region was covered with aluminum foil. At the end of the incubation period, the filter paper was removed and the exposed viscera covered with a saline-soaked gauze.
In these imaging experiments, there were also a 30-minute waiting time after introduction of FeCl3 to the exposed vena cava to ensure the development of substantial vascular injury and the deposition of a thrombus.

[3] = target: T1, rat-tail collagen type I (rat, UniProt P02454 152-1207; P02466 86-1125); test: proton NMR, free against with collagen
T1 construct: also called type-I collagen; unpolymerized collagen
T1 sequence (P02454 152-1207 limits assumed, chain 1 of 2): as the sequence (P02454 152-1207 limits assumed) above
T1 sequence (P02466 86-1125 limits assumed, chain 2 of 2): as the sequence (P02466 86-1125 limits assumed) above

Molecule | response to / binding of collagen (NMR spectral perturbations) [1] | further results
SWTYEGNKYTWK (SWTYEGNKYTWK-NH2) [Y4Y9-trpzip1, reference compound] | retain the collagne-binding capacity | 
SWTWENGKWTWK (SWTWENGKWTWK-NH2) [trpzip2, reference compound] | collagen-binding linear hairpin (CBLH) peptide | 
IRFTDGEWTWDDA (MH2-wZIP4-F1 - does not bind collagen) | does not respond to collagen binding | 
MH2-wZIP5: bivalent thrombin inhibitor containing the trpzip5 sequence (WO/2012/142696) (GEWTYDDATKTFTWTE; also: bivalent thrombin inhibitor, other parts, small tags and cut ends not in chain) | varying degrees of entrapment | NMR perturbations after collagen gelation (polymerization); reversibility of collagen binding [1]: reduced degree of proton NMR signal perturbations; also recorded: more pronounced loss of resonance perturbations as compared to MH2-wZIP6
acetyl-STWTWNGSAWTWNEGGK (Ac-STWTWNGSAWTWNEGGK) | bind to type-I collagen | NMR perturbations after collagen gelation (polymerization); reversibility of collagen binding [1]: essentially irreversible
TWTWNGTNWTRN (CBLH peptide - v4-gp160) | responsive to the presence of collagen | 
GEWTWDDATKTWTWTEGDFEEIPEEYL (MH2-wZIP4-F3 - molecule of Formula (I)) | responds fully to collagen | 
acetyl-STWTWNGTNWTRNDGGK (Ac-STWTWNGTNWTRNDGGK) | bind to type-I collagen | NMR perturbations after collagen gelation (polymerization); reversibility of collagen binding [1]: certain degree of reversibility
SWTVENGKVTWK (W2W11-trpzip2 - does not bind collagen) [reference compound] | loses the collagen-binding capacity | 
MH2-wZIP6: bivalent thrombin inhibitor containing the trpzip6 sequence (WO/2012/142696) (GEWTWDDATKTWTVTE; also: bivalent thrombin inhibitor, other parts, small tags and cut ends not in chain) | varying degrees of entrapment | NMR perturbations after collagen gelation (polymerization); reversibility of collagen binding [1]: reduced degree of proton NMR signal perturbations
TWRWNGSTAWTWS (CBLH peptide - pp-D7EUT8) | some proton NMR perturbations are observed | 
GEWVWDDATKTWHWTE (GEWVWDDATKTWHWTE-NH2) [trpzip8, reference compound] | CBLH peptides | 
KKWTWNPATGKWTWQE (KKWTWNPATGKWTWQE-NH2) [HP5W4, reference compound] | CBLH peptides | 
TWTWNGSAWTWN (CBLH peptide - v4-gp120) [reference compound] | respond to collagen | 
SWTYENGKYTWK (SWTYENGKYTWK-NH2) [WYYW-trpzip2, reference compound] | retains a significant capacity for binding collagen | 
KTWNPATGKWTE (HP7 - does not bind collagen) [reference compound] | does not respond to the addition of collagen | 

Molecule | response to / binding of collagen (NMR spectral perturbations) [1] | further results
KEWTYNPATGKWTWTE [CBLH3] | almost identical collagen-binding characteristics | NMR perturbations after collagen gelation (polymerization); reversibility of collagen binding [1]: certain degree of reversibility
IRFTDGGSWTWEGNKWTWKGGDFEEIPEEYLQ (MH2-wZIP1GG - molecule of Formula (I)) | responds similarly to collagen binding | 
GEWTYNPATGKWTWTE (GEWTYNPATGKWTWTE-NH2) [CBLH1] | almost identical collagen-binding characteristics | NMR perturbations after collagen gelation (polymerization); reversibility of collagen binding [1]: certain degree of reversibility
KEWTWNPATGKWTRTE (KEWTWNPATGKWTRTE-NH2) [CBLH4] | almost identical collagen-binding characteristics | NMR perturbations after collagen gelation (polymerization); reversibility of collagen binding [1]: certain degree of reversibility
STWTWNGTNWTRNDGGC-Fluor750 (not fully specified (C-terminus); printed as STWTWNGTNWTRNDGGC-Fluor750; also: HiLyte Fluor750 conjugate) [FL4447] |  | fluorescence at the injured vena cava (whole-body and post-mortem imaging) [2]: somewhat reduced level of local fluorescence as compared to FL4247/FL4312
GEWTWNPATGKWTRTE (GEWTWNPATGKWTRTE-NH2) [CBLH2] | almost identical collagen-binding characteristics | NMR perturbations after collagen gelation (polymerization); reversibility of collagen binding [1]: certain degree of reversibility
SWTYEGNKWTWK (SWTYEGNKWTWK-NH2) [Y4-trpzip1, reference compound] | retain the collagne-binding capacity | 
SWTWEGNKWTWK (SWTWEGNKWTWK-NH2) [trpzip1, reference compound] | respond to collagen | 
GEWTWDDA (MH2-wZIP4-F2 - does not bind collagen) | lack of binding with collagen | 
IRFTDGEWTWDDATKTWTWTE-GGS-VHpro10 (protein, WZ4-GGS-VHpro10 - molecule of Formula (I), trpzip4-VH conjugate, VHpro10 is a prothrombin-specific antibody VHH fragment) IRFTDGEWTWDDATKTWTWTEGGSDVQLQASGGGLVQAGGSLRLTCAASGRTFDRYGWFRQAPGKEREFVASIGTRLHYADSVKGRFTISRDNAKSTAFLEMNSLKPEDTAVYYCAAAESTRNWYYKMSNDYDYWGQGTQVTVSSLEHHHHHH |  | NMR perturbations / release after collagen degradation by a collagenase ([1]; collagenase treatment): gradually came into view while the collagen gel dissembles in the presence of a collagenase
KTWNPATGKWTE [HP7] |  | binding result [3]: no binding
SWTVENGKVTWK [W2W11-trpzip2] |  | binding result [3]: no binding
GEWTWDDA (also called P4236) [MH2-wZIP4-F2] |  | binding result [3]: no binding
IRFTDGEWTWDDA (also called P4233) [MH2-wZIP4-F1] |  | binding result [3]: no binding
GEWTYDDATKTFTVTE-NH2 (also called gb1 peptide; gb1-NH2) [gb1] |  | binding result [3]: no binding
